Laboratory results taken from paper PMC11014985, “TCTP regulates genotoxic stress and tumorigenicity via intercellular vesicular signaling” (EMBO Reports, 2024).

Target: DDX3-DQAD (human) (UniProt O00571)

increase of the let-7c-5p signal bound to DDX-DQAD on adding TCTP (500 nM TCTP, 300 nM DDX3-DQAD, 50 nM biotinylated let-7c-5p, non-denaturing gel), in the presence of AMP-PNP: 200%
increase of the let-7c-5p signal bound to DDX-DQAD on adding TCTP (500 nM TCTP, 300 nM DDX3-DQAD, 50 nM biotinylated let-7c-5p, non-denaturing gel), in the presence of ATP: 50%
B1: TCTP (translationally controlled tumor protein) (natural protein)
chain: MIIYRDLISHDEMFSDIYKIREIADGLCLEVEGKMVSRTEGNIDDSLIGGNASAEGPEGEGTESTVITGVDIVMNHHLQETSFTKEAYKKYIKDYMKSIKGKLEEQRPERVKPFMTGAAEQIKHILANFKNYQFFIGENMNPDGMVALLDYREDGVTPYMIFFKDGLEMEKC
